Reference: the domain aggregation screens of Martell et al. (2025)

Test: soluble fraction after stress (log2 fold change); higher = more stays soluble; pooled small domains, quantitative proteomics
Settings: stress: pH 4
Procedure, shortened: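 How much of each domain stays soluble after acid stress, expressed as a fold change, is used to gauge aggregation propensity. Pooled custom libraries of small domains underwent pH 4 stress before high-throughput quantitative proteomics. A higher log2 value means more of the domain stayed soluble.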

In order of falling “soluble fraction (log2)” value:
1. HMSSESIIIKKLIEEFIHNENKYSPLSDEKLSYLLKNKGFSVARRTVAKYRDELGILSTRERKIKI  0.393
2. HMTPDDSYIAGYAAGILKHQFLIDAPELIVRNGTITIPADKVSAGDRAKVVQILSGIPGVTRVEVG  0.368
3. HMPTQTEELRRRIVADVNAGEPGAKLGSERELAERYGTSRSSLRQVLAALQEAGLIDRVIGRSGGIFISH  0.33
4. HMPPSQRVNRILSLAGITSRRKADEYILEGRVTVNGEVLKEPGAKAVWGTDDIRVDGKPIPALS  0.275
5. HMFRDFSETLLRKLQAAGGFLPFTDKTDAEAIAEHFQVSKKTFKRAVGTLYKQRRILIDDEGITLIG  0.252
6. HMISKRFQIDEENAHKRIDIFLSHEFDSISRGIVQELIVKGEVLVNDKVTKRNYKLKTGDLVDITINL  0.247
7. HMSKKAIVINLLKRPDGASLKDIMQATYWQAHSVRGFISGSLTKKMGLNVESFKRPDGERAYRIN  0.22
8. HMSGQKDVPDLYGMTVKQAKKEVEAAGFKLKEGKEVYSNDYSKGQIAEQDPESGSKAKKGSSITVHVSKG  0.22
9. HMQERKYTVSFNTNGGSTINDQKITSGNVIISPGAPKRSGYTFVGWYYHGQPFDLNTKINQDYVLVAKWIK  0.207
10. HMEDLMEERKEHLLSVMKDPAYVPMKQKELAMLLNVPKGLREELNQVLDALVAEGSVVMSKRGKYTIPQ  0.189
11. HMDIMNNILINRIKKILTEQNMSKADLSRLTGISNSSLSEYLNGKYEPKQDKIALIAKALHVSPAWLMGF  0.166
12. HMRPTAWDQISDWLDRHGSIANADVVRIAGLDTLKASKLLTTWREQGLLEPLPGRGKRNMAYVRAI  0.12
13. HMELAALKILNSPIGKIAIGTSENGLVKLDILTSGQTRAEFSDLPKAHKLALDAADQLAAYF  0.113
14. HMITLYDLLGVSKTASSQEIKTAFKKKALQYHPDKNDGNPDKEEIFKRINMAYQVLGQPQSRANYDFSITP  0.0886
15. HMLPDAESFSYEVPYTKGDGGTYNYEGKIKAQNADAARDEIIRQAQVYFQMNPQFTPDYPSTTITSLD  0.0666
16. HMLTRQNFHGIKLPTIHEYIDLLNSRVNANIDKTNNWQSSVSHLRTYLNSHNINAVSKESINNYIDERLN  0.0397
17. HMKSNESAELGERMLNKALLALHTDSSKISDTQWQKLLRDYGAKNKQEILTDIGLGKRLNVMVAHQLMAMG  0.0391
18. HMAKRMRNPNGYGSIVKLSGNRRNPYMVKVNTHMDERYYPVYDILGYYPTWADASIALAKYNDDPYNVS  0.0269
19. HMKIEEVIEKLKTDSIISRKEYEDIVRQINPNLSDRTIFWQLAKLQDMGVLQKIGQNSFHVRN  0.0251
20. HMTWIAEIELRLMGNGAVTGAKIVKSTDLKDVDAAIYRAALEASPYPAPESGIGGRFTIKLKY  0.015
21. HMNGQFIELKNTTGTIIEARVLSFQNGKVKLQRNDGLIFVASISIFDSESIEVIKQKVAEISESKKS  -0.0246
22. HMREIRIIAEEGHGRLDAFLAGREELGLSRSRIKGLIEEGQVTLNGAVPKAKQPVSPGDEIVVSVPD  -0.0246
23. HMLETADDAKRFLGAIISEKKAENLLRVYPDIIERIVAGKPVDLSLVKGIKQKTFDKLRQKVISHYSMY  -0.0382
24. HMNFTKHPENPNFVVYRFTDPERANSFRAELIANNISFEEDTEKKKQLIYTLFAIHTKYYNQSMQINIK  -0.0767
25. HMGDDYFTILGIERDATTDEIRSAYRRLSKKIHPDAQGSSALFRQVQEAYETLIDPSSRARYVAELNASQG  -0.0836
26. HMNNPNFAIQKYVTGSDIKRVRKTLRLTQKKFAELVGVSKATMERWETKEDKITGPVVLLLKILEDHPEY  -0.0904
27. HMNQNHFLDSVVEFAKDEASRAFFQKAVKKLGEGLVEEAMGEVKMREADGSVNSRAPYFIALLENWMENR  -0.128
28. HMEALDPLTAREQEVLEMILSGKSNREIAAELHITENTVKTHAQSIYSKYDVRGRAKLISLLLKGEA  -0.192
29. HMTMNLIEIGHVVGARRAELGLTQAQLAHLSGLSRQTVVGLEKGTLSDLGVNRVGQVMAVLGLDS  -0.242
30. HMNVDSLPGEKAVVIKTIDNLRGTGQAVVNGLEWSAKSKDETIIDEGKVVRIVAVEGVKLVVEEE  -0.252
31. HMEPAPPPAAPPADPELQKRIDKLVEYIGKNGPEFEAVIRDKQHDNPDYAFVFGGEGHAYYRYLLWLLPRP  -0.287
32. HMSGYSTLFTRMSREDAQAVVSLLQDDGIEYRYNDDTGTVQVPSATVDQTRAKLVSAGYPRS  -0.303
33. HMSYTAYLSQELGDMSREIQSELLKKGYNGSSSFTIVRTYMGSSVKFSVYNANNGELITSKTINM  -0.306
34. HMTSISMDEKVVLGWHQVTTGAANSGMDKVVSNTSGLNVISPTWFKLSDNKGNYISIASKDYVDAAHKKGL  -0.317
35. HMQVTDADFDQIRLAVLSQLKQNSLTVAELLKIIPFKEQKVMPVIRFLIDNRVLEHGTDMKLTVGNSVK  -0.34
36. HMDTRKEREIALYEAALRLIASGVNPAAMKVQQIADEAGIGKGTVYEYFASKEEILHGMALH  -0.36
37. HMRALPAGQADLLKWIDGVTPRSVEELELLSGLEPGRLSELLMELELAGIVRAVAGDSYIKISKS  -0.534
38. HMDFTMSEIQTAMAALPRGYRTVVQLYLVDGYSHKEIAEMLGVDVNTSKSQLSRGRKQLQAFLAAMS  -0.602
39. HMKQTDQELAEMLRFRAAQRGLLMSDEVVNYVMTRVERSAKSLIMLLDRIDRAALAQARPVTIPLINEL  -0.606
40. HMWQPIKLDRGDWQNSLQVGDRVFVRGIPRPVEILSAVDEENNIEVLMGTMRAKIPVYQLDKPAENFIDTT  -0.711
41. HMGVEVPRGDGSTVVRVRAGSSLADFAERIGADPAALITVLFRMGEMATVNQSLDEDTFKLLGAELGYDVQ  -0.721
42. HMLEQLTPRELKVLQALAQGRQNKEIAAQLVISERTVKFHVSAILSKLNVGNRTEAVTVAAQRGLISL  -0.729
43. HMGADRLVGMTAIVTATIDPNDTDRKGRVQVEGEVWSALSDGRLIITEGSKVRITEMHGTRVRVEAI  -0.884
44. HMLNWINSDVLERFNSLTKEKQKAIVADTETRLNGLSQARFKVAKSSSNERLIAEFAIEINEAIMRAAAL  -0.894
45. HMRHRITEKDKQFRIGQQVWHSEYGKGMVLSVDGIGSSARLTVSFVSGKLAKIIGTFVSTEP  -0.982
46. HMDFNNQLKRIRESNGLTQEQLAKILNVSRQSISSWEVGRNFPDLEMIVIISKEFNISLDQLIMG  -1.03
47. HMVSKIEAPLPGIILSVDVKEGDTVKAGDKLMVMEAMKMENAILAETNGVVKSIKVKIQDSVLQGDILAEI  -1.07
48. HMGMIRFSKEEQMLMMLYSPGSRLGLIAELESMKLQLNSRERKLRNLAESVLKKLEQITDEEFMQFDF  -1.11
49. HMTSHSFVITEEVGQRLDRFISDQLDTVSRTMIQKHIRSGAVVVNGKQVKSNYLLVLNDRINIALK  -1.22
50. HMYDDLEPFDANGRLRWSDKELILAFGRHRGVTLQTLELNDPGYLRWLLSGNGPLEQQDRKRLEDILES  -1.36
51. HMNKADFLRKLDRELSVLDQEERKEILSFYEERFYTGTNYENKTELDIINELENPEIIAKNVLEEYGV  -1.45
52. HMTSSSGTITADWLNVRSGAGTNFSRLGSIAGGTRLTVISVHGEWYKITASFEGEIRTGYVHSQYVQMDGE  -1.59
53. HMGIAWGMLREQVAASDVSYRSEVLDILDRTPVWIYDAEGKIVDGRKKRLMDLQGGEPYRHMLEHFFPDLR  -1.96
54. HMRLDVALRGVLLDGDPTQSRAFVLVSGTTSTYRLGETVQSAELVAINADTITLRTETGLHVIGFDGLI  -2.11
55. HMSHYEYKVGDRVNLLDYDDFGILYKEKDNFYNVVVYYNGEFVEVNVKRITLEVAAKELYPEGYDLSTLFV  -2.41
